Reference: the nanobody polyreactivity screen of Harvey et al. (2022)

Assay: yeast display, Sf9 membrane polyspecificity reagent, FACS + sequencing; frameworks hold sequencing errors
Procedure, shortened: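 A nanobody's polyreactivity label depends on the gate it was sorted from. Yeast display cells were stained with 10% biotinylated, detergent-solubilized Sf9 membrane reagent for 1 hour at 4 °C, enriched on streptavidin microbeads and sorted by FACS. The low and high (top ~1%) gates were set on anti-HA fluorescence for expression and streptavidin fluorescence for reagent binding.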

Row | Sequence | polyreactivity (PSR sort gate)
1 | QVQLVESGGGLVQAGGSLRLSCAASGRIFNPNAMGWDRQAPGKERELVAAISTSGDSTYADSVKGRFTISRDNAKNTVYLQMNSLKPEDTAVYYCAATSGRRTTRWGRYGYWGQGTQVTVSS | high polyreactivity
2 | QVQLVESGGGLVQAGGSLRLSCAASGRIFNQYAMGWYRQAPGKERELVAAISRRGGSTYYADSVKGRFTISRDNAKNTVYLQMNSLKPEDTAVYYCAAVGGYASYFHLYYYWGQGSQVTVSS | high polyreactivity
3 | QVQLVESGGGLVQAGGSLRLSCAASGRIFNQYGMGWYRQAPGKERELVASITLTDGSTYYADSVKGRFTISRDNAKNTVYLQMNSLKPEDTAVYYCAARISGGSTFRYQRMYYWGQGTQVTVSS | low polyreactivity
4 | QVQLVESGGGLVQAGGSLRLSCAASGRIFNRNAMGWYRQAPGKERELVASISSGGRTNYADSVKGRFTISRDNAKNTVYLLMNSLKPEDTAVYYCAAKSPRILLDYWGQGTQVTVSS | low polyreactivity
5 | QVQLVESGGGLVQAGGSLRLSCAASGRIFNRNAMGWYRQAPGKERELVASISSGGRTNYADSVTGRFTISRDNAKNTDYLQMNSLKPEDTAVYYCAAKSPRILLDYWGQGTQVTVSS | low polyreactivity
6 | QVQLVESGGGLVQAGGSLRLSCAASGRIFNRYAMGWYRQAPGKEREFVARITGSGGRTYYADSVKGRFTISRDNAKNTVYLQMNSLKPEDTAVYYCARDRGYQSGYDYWGQGTQVTVSS | high polyreactivity
7 | QVQLVESGGGLVQAGGSLRLSCAASGRIFNRYAMGWYRQAPGKERELVAAISSRGGSTFYADSVKGRFTISRDIAKNTVYLQMNSLKPVDTAVYYCATAWHRGVRGRTSGAFDYWGQGTQVTVSS | high polyreactivity
8 | QVQLVESGGGLVQAGGSLRLSCAASGRIFNRYTMGWYRQAPGKERELGAAISKSGGSTYYADSVKGRFTISRDNAKNTVYVQMNSLKPEDTAVYDCAAPPRLYRWHGGDYWGQGTQVTVSS | high polyreactivity
9 | QVQLVESGGGLVQAGGSLRLSCAASGRIFNSNTMGWYRQAPGKERELVAAIRGSGGSTYADSVKGRFTISRDNAKNTVYLQMNSLKPEDTAVYYCAASPRRWYTPDAVSTYRMYYWGQGTQVTVSS | high polyreactivity
10 | QVQLVESGGGLVQAGGSLRLSCAASGRIFNSNTMGWYRQAPGKERELVAAITYSGGSTYYADSVKGRFTISRDNAKNTVYLQMNSLKPEDTAVYYCAADFWEYDGPWYANDYDSWGQGTQVTVSS | low polyreactivity
11 | QVQLVESGGGLVQAGGSLRLSCAASGRIFNSYAMGWSRQAPGKERELVAAISSGGSTYYADSVKGRFTISRDNAKNTVYLQMKRLKPEDTAVYYCAARIWNGRGRKLGYGYDYWGQGTQVTVSS | low polyreactivity
12 | QVQLVESGGGLVQAGGSLRLSCAASGRIFNSYAMGWYIQAPGKERELVAAISSGGSTYYADSVKGRFTISRDNAKNTVYLQMNSLKPEDTAVYYCAARIWTGRGRKLGYGYDYWGQGTQVTVSS | low polyreactivity
13 | QVQLVESGGGLVQAGGSLRLSCAASGRIFNSYAMGWYRQAPGKERELVAAINWTDVSTYYADSVKGRFTISRDNAKNTVYLQMNSLKPEDTAVYYFAAVRWGSYTLSDDYWGQGTQVTVSS | low polyreactivity
14 | QVQLVESGGGLVQAGGSLRLSCAASGRIFNVNVMGWYRQAPGKERELVASINWSGTSTYYADSVKGRFTISRDNAKNTVYLQMNSLKPEDTAVYYCAADLALYNTLYLTLPDYYWGQGTQVTVSS | low polyreactivity
15 | QVQLVESGGGLVQAGGSLRLSCAASGRIFNWYVMGWYRQAPGKERELVAAINSGGITKYADSVKGRFTISRDNAKNTVYLQMNSLKPEDTAVYYCAAYYRRYDYDYWGQGTQVTVSS | high polyreactivity
16 | QVQLVESGGGLVQAGGSLRLSCAASGRIFNYNAMGWYRQAPGKERELVAAITRSTGNTYYADSVKGRFTISRDNAKNTVYLQMNSLKPEDTAVYYCAAAYAYWRKYDYWGQGTQVTVSS | high polyreactivity
17 | QVQLVESGGGLVQAGGSLRLSCAASGRIFNYYAMGWSRQAPGKERELVAAIRTGGSTYYADSVKGRFTISRDNAKNTVYLQMNSLKPEDTAVYYCARLVYYSSPYGYWGQGTQVTVSS | high polyreactivity
18 | QVQLVESGGGLVQAGGSLRLSCAASGRIFNYYAMGWYRQAHGKERELVAVITYSAGRTYYADSVKGRFTISRDNAKNTVYLQMNSLKPEDTAVYNCNADGWVSVSKHYYYWGQGTQVTVSS | low polyreactivity
19 | QVQLVESGGGLVQAGGSLRLSCAASGRIFPAYAMGWYKQAPGKERELVASIRRGGITYADSVKGRFTISRDNAKNTVYLQMNSLKPEDTAVYYCNADYRGWGYHMDYWGQGTKVTVSS | low polyreactivity
20 | QVQLVESGGGLVQAGGSLRLSCAASGRIFPAYAMGWYRKAPGKETELVAAISWRSGSTYYAHSVKGRFTISRDNAKNTVYLQMNSLKPEDTAVYYCAAEYDWPGYDYWGQGTQVTVSS | high polyreactivity

Row | Sequence | polyreactivity (PSR sort gate)
21 | QVQLVESGGGLVQAGGSLRLSCAASGRIFPDNTMGWSRQAPGKERELVAVITYSGGSTYYADSVKGRFTISRDNAKNTVYLQMNSLKPEDTAVYYCAKTLGSQNYDFDYWGQGTQVTVSS | low polyreactivity
22 | QVQLVESGGGLVQAGGSLRLSCAASGRIFPDNTMGWYRQAPGTERELVAAITSSGGSTYYADSVKGRFTISRDNAKNTVYLQMNSLKPEDTAVYYCAAAVKRGYAQSFISDGYGYWGQGTQVTVSS | low polyreactivity
23 | QVQLVESGGGLVQAGGSLRLSCAASGRIFPFNAMGWYRQAPGKEREFVAAIRLSGTRTYYADSVKGRFTISRDNAKNTVYLQMNSLKPEDTAVYYCAAKYSGHYYNYDYWGQGTQVSVSS | high polyreactivity
24 | QVQLVESGGGLVQAGGSLRLSCAASGRIFPFYDMGWYRQAPGKERELVAAISTSGGSTYYADSVKGRFTISRDNAKNTVYLQMNSLKPEDTAVYYCNAQRALRSTYDSWGQGTQVTVSS | low polyreactivity
25 | QVQLVESGGGLVQAGGSLRLSCAASGRIFPGNAMGWYRQAPGKESELVAAISKSGGSTYYADSVKGRFTISRDNAKNTVYLQMNSLKPEDTAVYYCAKLYYPVSDQYDYYYWGQGTQVTVSS | low polyreactivity
26 | QVQLVESGGGLVQAGGSLRLSCAASGRIFPGNPMGWYRQATGQERELVAGISFSGGRTYYADSVKGRFTISRDNAKNTVYLQIISLKPEDTAVYYCATKYQQHCWSYDYWGQGTQVTVSS | low polyreactivity
27 | QVQLVESGGGLVQAGGSLRLSCAASGRIFPGNTMGWYRQAPGKERELVAAISSSTGNTYYADSVKGRFTISRDNAKNTVYLQMNSLKPEDTAVYYCAARTRQISIVGYNYWGQGTQVTVSS | high polyreactivity
28 | QVQLVESGGGLVQAGGSLRLSCAASGRIFPGYAMGLYRQAPGKERELVAAISKGGGSTSYADSVKGRFTISRDNAKNTVYFQMNSLKPEDTAVYFCAARQAWRWTYDYWGQGTQVSVSS | high polyreactivity
29 | QVQLVESGGGLVQAGGSLRLSCAASGRIFPGYAMGWYRPAPGKERELVAAISKSGVSTYYADSVKGRFTISCDNAKNTVYLQMNSLKPEDTAVYYCAAVSYSYFSRGYRTFQLAYWGQGTQVTVSS | high polyreactivity
30 | QVQLVESGGGLVQAGGSLRLSCAASGRIFPHYAKGWYRQAPGKERELVAAISSGGRTNYADSVKGRFTISRDNAKNTVYIQMNSLKPEDTAVYYYAVDDYVYEMDYWGQGTQVTVSS | high polyreactivity
31 | QVQLVESGGGLVQAGGSLRLSCAASGRIFPISAMGWYRQAPGKERVLVAAIDSGGSTTYADSVKGRFTISRDNEKNTVYLQMNSLKPEDSADYYCAAKGAYPYWYPVGYRYDYWGQGTQVTVSS | low polyreactivity
32 | QVQLVESGGGLVQAGGSLRLSCAASGRIFPIYAMGWYRQAPGKERELVAAISRTDGTTYYADSVKGRFTISRDYANNTVYLQMNSLKPEDTAVYYCAADYLRAPYYQYEYWGQGTQVTVSS | low polyreactivity
33 | QVQLVESGGGLVQAGGSLRLSCAASGRIFPKYAMGWYRQAPGKERELVAAIRWSGGNTYYADSVKGRFTISRDNAKNTVYLQMNSLKPEDTAVYYCAATPYVSKYYYFGHDYWGQGTQVTVSS | high polyreactivity
34 | QVQLVESGGGLVQAGGSLRLSCAASGRIFPNNAMGWYRQAPGKERELVAAITSIGGSTYYADSVKGRFTISRDNAKNTVYLQMNSLKPEDTAVYYCAARWERFVPTGRFSYYYYYWGQGTQVTVSS | high polyreactivity
35 | QVQLVESGGGLVQAGGSLRLSCAASGRIFPPYAMGWYRQAPGKERELVAAISSSTTSTYYADSVKGRFTISRDNAKNTVYLQMNSLKPEDTADYYCAATGKGSYGYWGQGTQVTVSS | low polyreactivity
36 | QVQLVESGGGLVQAGGSLRLSCAASGRIFPQNAMGWYRQAPGKERELVAAITSDGAITYYADSVKGRFTISRDNAKNTVYLQMNSLKPEDTAVYYCATQGRYYDYDYWGQGTQVTVSS | low polyreactivity
37 | QVQLVESGGGLVQAGGSLRLSCAASGRIFPQYAMGWYRQAPGKERELVAGITSVGSTYYADSVKGRFTISRDNAKTTVYLQMNSLKPEDTAVFYCAAVPSRYVRANRRTYRYYYWGQGTQVTVSS | high polyreactivity
38 | QVQLVESGGGLVQAGGSLRLSCAASGRIFPRNAMGWYRQAPGKERELVAAISQSGTSTYYADSVKGRFTISRDNAKNTVYLQMNSLKPEDTAVYYCAAVSSSGYYWGQGTQVTVSS | low polyreactivity
39 | QVQLVESGGGLVQAGGSLRLSCAASGRIFPRNTMGWYRQAPGKQRELVAAISTRGGSTYYADSVKGRFTISRDNAKNTVYLQMNSLKPEDTAVYYCAAGRRFPAIYSTGNYWGQGTQVTVSS | high polyreactivity
40 | QVQLVESGGGLVQAGGSLRLSCAASGRIFPRYAMGWYRQAPGKERELVAAITSSGTSTYYADSVKGRFTISRDNAKNTVYLQMNSLKPEDTAVYYCNAVKYARWGYDYWGQGTQVTVSS | high polyreactivity
